Series [1] has as its target T1, NF-kB p50 (UniProt P19838 1-433). Description: competition.
Series [2] addresses T1, NF-kB p50. Description: EMSA. (A gel shift assay detects complexes by their altered migration in electrophoresis.)

T1 sequence (P19838 1-433): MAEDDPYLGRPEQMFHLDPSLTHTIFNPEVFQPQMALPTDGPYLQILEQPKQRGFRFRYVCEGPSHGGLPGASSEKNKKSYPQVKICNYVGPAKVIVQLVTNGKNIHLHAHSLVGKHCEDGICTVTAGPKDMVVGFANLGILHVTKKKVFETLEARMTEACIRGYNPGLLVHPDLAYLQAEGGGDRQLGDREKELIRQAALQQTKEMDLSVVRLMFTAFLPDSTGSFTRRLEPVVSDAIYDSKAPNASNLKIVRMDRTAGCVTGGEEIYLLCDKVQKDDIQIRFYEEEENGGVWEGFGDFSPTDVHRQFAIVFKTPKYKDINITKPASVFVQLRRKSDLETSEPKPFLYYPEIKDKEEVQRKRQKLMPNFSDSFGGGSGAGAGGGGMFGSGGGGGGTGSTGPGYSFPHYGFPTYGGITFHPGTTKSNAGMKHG

B1: C-oligo NF-kB (consensus cold competitor) (dsDNA)
DNA 1: CCGCTGGGACTTTCCAGGA
DNA 2: TCCTGGAAAGTCCCAGCGG
With B1, in series [1], the binding result is reported as “binds”.

B2: Probe C (rs28416813 C allele, IFNL3 5'UTR) (dsDNA)
DNA 1: CCCCTGCCCTCAGTGGGCAGCCTCTGCATTCCCTCAGCTCCCTTTCTCTCTGTGA
DNA 2: TCACAGAGAGAAAGGGAGCTGAGGGAATGCAGAGGCTGCCCACTGAGGGCAGGGG
modifications: BrdU (written T) at positions 5 and 34 of strand 1
Consider B2, for which, in series [2], the binding result was “binds”.

The record behind these values is paper PMC7611124.
